# Source: patent publication US20260242444A1 (SUZHOU FORLONG BIOTECHNOLOGY, published 2026)
# Assays:
# IL-15R β protein = IL-15R β protein (UniProt P14784); assay: BLI (Octet-RED), IL-15Rβ immobilized on Ni-NTA biosensors, serial dilutions of the complex as analyte, global 1:1 fit
# FL115-WT = FL115-WT (Homo sapiens (Human), UniProt P40933 49-162); assay: as above
# Experimental: The binding activity of an agonistic interleukin 15 complex to the receptor IL-15R β was assayed using an Octet-RED (Pall ForteBio) Bio-Layer Interferometry (BLI) instrument. […] 6.2 (2022): e2100966, PMID: 35174992). The baseline was established in kinetics buffer and loaded biosensors were dipped into wells containing serial dilutions of an agonistic interleukin 15 complex for 300 s. FL115 (also named FL115-V2), an agonistic interleukin 15 complex according to an embodiment of the application, contains a monomeric IL-15 receptor αSu/Fc fusion protein having the amino acid sequence of SEQ ID NO: 2 and a mutant IL15 having the amino acid sequence of SEQ ID NO: 3. FL115-WT, another agonistic interleukin 15 complex according to an embodiment of the application, contains a monomeric IL-15 receptor αSu/Fc fusion protein having the amino acid sequence of SEQ ID NO: 2 and the wild-type IL15 having the amino acid sequence of SEQ ID NO: 4. The agonistic interleukin 15 complex was bound to the immobilized IL-15R β protein. The binding complexes of the IL-15R β protein-agonistic IL15 complex were then allowed to dissociate in kinetics buffer. Global data fitting to a 1:1 binding model was used to estimate the affinity using Data Analysis software version 8.1.
# Sequence of FL115-WT (chain, as listed by the source limits assumed, chain 1 of 2): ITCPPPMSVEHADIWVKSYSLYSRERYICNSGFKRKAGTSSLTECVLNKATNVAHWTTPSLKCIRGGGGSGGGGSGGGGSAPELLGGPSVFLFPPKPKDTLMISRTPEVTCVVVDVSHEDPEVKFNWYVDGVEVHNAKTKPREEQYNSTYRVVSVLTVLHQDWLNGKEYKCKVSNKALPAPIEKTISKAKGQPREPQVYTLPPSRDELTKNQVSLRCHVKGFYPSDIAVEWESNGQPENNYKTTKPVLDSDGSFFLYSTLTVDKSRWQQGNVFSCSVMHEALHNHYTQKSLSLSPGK
# Sequence of FL115-WT (P40933 49-162 limits assumed, chain 2 of 2): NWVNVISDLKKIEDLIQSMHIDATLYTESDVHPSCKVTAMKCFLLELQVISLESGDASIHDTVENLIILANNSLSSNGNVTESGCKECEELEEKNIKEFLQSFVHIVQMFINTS
Kd (IL-15R β protein),koff (IL-15R β protein),kon (IL-15R β protein),Kd (FL115-WT),koff (FL115-WT),kon (FL115-WT),Molecule
0.0039 µM,0.000235 s⁻¹,60400 M⁻¹ s⁻¹,–,–,–,ALT 803 (Fc fusion)
–,–,–,0.0627 µM,0.00108 s⁻¹,17200 M⁻¹ s⁻¹,"IL-15R β protein (receptor, UniProt P14784 27-239, looked up, also called IL-15 receptor β; IL-2/IL-15 receptor beta) AVNGTSQFTCFYNSRANISCVWSQDGALQDTSCQVHAWPDRRRWNQTCELLPVSQASWACNLILGAPDSQKLTTVDIVTLRVLCREGVRWRVMAIQDFKPFENLRLMAPISLQVVHVETHRCNISWEISQASHYFERHLEFEARTLSPGHTWEEAPLLTLKQKQEWICLETLTPDTQYEFQVRVKPLQGEFTTWSPWSQPLAFRTKPAALGKD"
